Biological target: ehd2_mouse Ehd2 (UniProt Q8BH64)
Sequence of UniProt Q8BH64 (Q8BH64 whole entry): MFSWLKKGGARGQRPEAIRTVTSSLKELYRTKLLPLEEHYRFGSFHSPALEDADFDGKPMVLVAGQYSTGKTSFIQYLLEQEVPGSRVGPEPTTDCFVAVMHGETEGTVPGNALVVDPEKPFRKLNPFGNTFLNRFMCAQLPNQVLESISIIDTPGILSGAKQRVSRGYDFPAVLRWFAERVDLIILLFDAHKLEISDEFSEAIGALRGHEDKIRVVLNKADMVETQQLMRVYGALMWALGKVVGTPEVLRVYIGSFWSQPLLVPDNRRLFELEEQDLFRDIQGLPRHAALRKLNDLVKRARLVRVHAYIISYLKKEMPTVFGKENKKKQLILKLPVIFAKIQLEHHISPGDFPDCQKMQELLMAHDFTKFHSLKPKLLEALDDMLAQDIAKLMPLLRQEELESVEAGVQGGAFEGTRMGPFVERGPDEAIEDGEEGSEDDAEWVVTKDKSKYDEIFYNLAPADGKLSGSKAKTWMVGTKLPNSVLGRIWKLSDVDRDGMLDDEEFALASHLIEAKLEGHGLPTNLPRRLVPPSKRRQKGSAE

effect of a mutation on the interaction: decreasing interaction
Substance: Myoferlin (Homo sapiens), Q9NZM1 N238C

Reference: IntAct's records for PubMed 18502764
